Reference: paper PMC3320896

Biological target: recombinant Hepatitis B surface antigen (rHBsAg) virus-like particle, S form of HBsAg (Hepatitis B virus)
Test: cryo-EM structure; redox-treated rHBsAg VLPs in vitrified ice; 3D reconstruction with octahedral symmetry imposed, nominal resolution ~1.5 nm (FSC0.5); monomers counted from the volume of segmented protein density

“recombinant Hepatitis B surface antigen (rHBsAg) virus-like particle, S form of HBsAg (natural protein)” gave a stoichiometry N (protein monomers per particle) of 96.
